Source: PMC12120360, “Lysine acetylation modulates s‐OPA1 GTPase activity and oligomerization in mitochondrial membrane remodeling” (Protein Science : A Publication of the Protein Society, 2025)

B1: short form of human OPA1 (residues 195–960) wild-type (domain or fragment, UniProt O60313-1 195-960, looked up)
chain: ATDRGSESDKHFRKVSDKEKIDQLQEELLHTQLKYQRILERLEKENKELRKLVLQKDDKGIHHRKLKKSLIDMYSEVLDVLSDYDASYNTQDHLPRVVVVGDQSAGKTSVLEMIAQARIFPRGSGEMMTRSPVKVTLSEGPHHVALFKDSSREFDLTKEEDLAALRHEIELRMRKNVKEGCTVSPETISLNVKGPGLQRMVLVDLPGVINTVTSGMAPDTKETIFSISKAYMQNPNAIILCIQDGSVDAERSIVTDLVSQMDPHGRRTIFVLTKVDLAEKNVASPSRIQQIIEGKLFPMKALGYFAVVTGKGNSSESIEAIREYEEEFFQNSKLLKTSMLKAHQVTTRNLSLAVSDCFWKMVRESVEQQADSFKATRFNLETEWKNNYPRLRELDRNELFEKAKNEILDEVISLSQVTPKHWEEILQQSLWERVSTHVIENIYLPAAQTMNSGTFNTTVDIKLKQWTDKQLPNKAVEVAWETLQEEFSRFMTEPKGKEHDDIFDKLKEAVKEESIKRHKWNDFAEDSLRVIQHNALEDRSISDKQQWDAAIYFMEEALQARLKDTENAIENMVGPDWKKRWLYWKNRTQEQCVHNETKNELEKMLKCNEEHPAYLASDEITTVRKNLESRGVEVDPSLIKDTWHQVYRRHFLKTALNHCNLCRRGFYYYQRHFVDSELECNDVVLFWRIQRMLAITANTLRQQLTNTEVRRLEKNVKEVLEDFAEDGEKKIKLLTGKRVQLAEDLKKVREIQEKLDAFIEALHQEK
modifications: acetyl-lysine at K342 only (endogenous, acquired during expression; found by mass spectrometry)
notes: Optic Atrophy 1 (OPA1), human, short form (s-OPA1), residues 195-960; domain model of isoform 1; Gene bought from Genscript in the pGS-21a vector; also called s-OPA1 WT; s-OPA1; source: E. coli BL21 (DE3), purified (glutathione resin, 3C protease cleavage, size exclusion chromatography)
B2: s-OPA1 K772Q (domain or fragment, human, UniProt O60313-1 195-960, looked up)
chain: ATDRGSESDKHFRKVSDKEKIDQLQEELLHTQLKYQRILERLEKENKELRKLVLQKDDKGIHHRKLKKSLIDMYSEVLDVLSDYDASYNTQDHLPRVVVVGDQSAGKTSVLEMIAQARIFPRGSGEMMTRSPVKVTLSEGPHHVALFKDSSREFDLTKEEDLAALRHEIELRMRKNVKEGCTVSPETISLNVKGPGLQRMVLVDLPGVINTVTSGMAPDTKETIFSISKAYMQNPNAIILCIQDGSVDAERSIVTDLVSQMDPHGRRTIFVLTKVDLAEKNVASPSRIQQIIEGKLFPMKALGYFAVVTGKGNSSESIEAIREYEEEFFQNSKLLKTSMLKAHQVTTRNLSLAVSDCFWKMVRESVEQQADSFKATRFNLETEWKNNYPRLRELDRNELFEKAKNEILDEVISLSQVTPKHWEEILQQSLWERVSTHVIENIYLPAAQTMNSGTFNTTVDIKLKQWTDKQLPNKAVEVAWETLQEEFSRFMTEPKGKEHDDIFDKLKEAVKEESIKRHKWNDFAEDSLRVIQHNALEDRSISDKQQWDAAIYFMEEALQARLKDTENAIENMVGPDWQKRWLYWKNRTQEQCVHNETKNELEKMLKCNEEHPAYLASDEITTVRKNLESRGVEVDPSLIKDTWHQVYRRHFLKTALNHCNLCRRGFYYYQRHFVDSELECNDVVLFWRIQRMLAITANTLRQQLTNTEVRRLEKNVKEVLEDFAEDGEKKIKLLTGKRVQLAEDLKKVREIQEKLDAFIEALHQEK
modifications: acetyl-lysine at K713 only (endogenous, by mass spectrometry)
notes: Optic Atrophy 1 (OPA1), human, short form (s-OPA1), residues 195-960; domain model of isoform 1; Gene bought from Genscript in the pGS-21a vector; source: E. coli BL21 (DE3), purified (glutathione resin, 3C protease cleavage, size exclusion chromatography)
B3: s-OPA1 K772R (domain or fragment, human, UniProt O60313-1 195-960, looked up)
chain: ATDRGSESDKHFRKVSDKEKIDQLQEELLHTQLKYQRILERLEKENKELRKLVLQKDDKGIHHRKLKKSLIDMYSEVLDVLSDYDASYNTQDHLPRVVVVGDQSAGKTSVLEMIAQARIFPRGSGEMMTRSPVKVTLSEGPHHVALFKDSSREFDLTKEEDLAALRHEIELRMRKNVKEGCTVSPETISLNVKGPGLQRMVLVDLPGVINTVTSGMAPDTKETIFSISKAYMQNPNAIILCIQDGSVDAERSIVTDLVSQMDPHGRRTIFVLTKVDLAEKNVASPSRIQQIIEGKLFPMKALGYFAVVTGKGNSSESIEAIREYEEEFFQNSKLLKTSMLKAHQVTTRNLSLAVSDCFWKMVRESVEQQADSFKATRFNLETEWKNNYPRLRELDRNELFEKAKNEILDEVISLSQVTPKHWEEILQQSLWERVSTHVIENIYLPAAQTMNSGTFNTTVDIKLKQWTDKQLPNKAVEVAWETLQEEFSRFMTEPKGKEHDDIFDKLKEAVKEESIKRHKWNDFAEDSLRVIQHNALEDRSISDKQQWDAAIYFMEEALQARLKDTENAIENMVGPDWRKRWLYWKNRTQEQCVHNETKNELEKMLKCNEEHPAYLASDEITTVRKNLESRGVEVDPSLIKDTWHQVYRRHFLKTALNHCNLCRRGFYYYQRHFVDSELECNDVVLFWRIQRMLAITANTLRQQLTNTEVRRLEKNVKEVLEDFAEDGEKKIKLLTGKRVQLAEDLKKVREIQEKLDAFIEALHQEK
modifications: 10 endogenous acetylated lysine residues, including K328 and K342 (listed in Figure 2c)
notes: as for B2
B4: s-OPA1 K328Q (domain or fragment, human, UniProt O60313-1 195-960, looked up)
chain: ATDRGSESDKHFRKVSDKEKIDQLQEELLHTQLKYQRILERLEKENKELRKLVLQKDDKGIHHRKLKKSLIDMYSEVLDVLSDYDASYNTQDHLPRVVVVGDQSAGKTSVLEMIAQARIFPRGSGEMMTRSPVQVTLSEGPHHVALFKDSSREFDLTKEEDLAALRHEIELRMRKNVKEGCTVSPETISLNVKGPGLQRMVLVDLPGVINTVTSGMAPDTKETIFSISKAYMQNPNAIILCIQDGSVDAERSIVTDLVSQMDPHGRRTIFVLTKVDLAEKNVASPSRIQQIIEGKLFPMKALGYFAVVTGKGNSSESIEAIREYEEEFFQNSKLLKTSMLKAHQVTTRNLSLAVSDCFWKMVRESVEQQADSFKATRFNLETEWKNNYPRLRELDRNELFEKAKNEILDEVISLSQVTPKHWEEILQQSLWERVSTHVIENIYLPAAQTMNSGTFNTTVDIKLKQWTDKQLPNKAVEVAWETLQEEFSRFMTEPKGKEHDDIFDKLKEAVKEESIKRHKWNDFAEDSLRVIQHNALEDRSISDKQQWDAAIYFMEEALQARLKDTENAIENMVGPDWKKRWLYWKNRTQEQCVHNETKNELEKMLKCNEEHPAYLASDEITTVRKNLESRGVEVDPSLIKDTWHQVYRRHFLKTALNHCNLCRRGFYYYQRHFVDSELECNDVVLFWRIQRMLAITANTLRQQLTNTEVRRLEKNVKEVLEDFAEDGEKKIKLLTGKRVQLAEDLKKVREIQEKLDAFIEALHQEK
modifications: acetyl-lysine at K713 only (endogenous, by mass spectrometry)
notes: Optic Atrophy 1 (OPA1), human, short form (s-OPA1), residues 195-960; domain model of isoform 1; Gene bought from Genscript in the pGS-21a vector; also called acetylation mimetic mutant K328Q; source: E. coli BL21 (DE3), purified (glutathione resin, 3C protease cleavage, size exclusion chromatography)

Molecular target: the molecule itself
Experiment: mass photometry; protein in solution at 75 nM final; 20 mM HEPES-NaOH pH 7.5, 130 mM NaCl, 10 mM KCl, 2 mM MgCl2, 2 mM DTT, 2% glycerol; Refeyn mass photometer; mass measured three times for each protein

Stoichiometry N, 2:
B1
B2
B3
B4
